# Measured values published in patent publication US20080070791A1 (ZEPHYR PROTEOMIX, published 2008).
# B1: recombinant protein comprising the cellulose binding region of SEQ ID NO:4 (other)
# chain: NATPTKGATPTNTATPTKSATATPTRPSVPTNTPTNTPANTPVSGNLKVEFYNSNPSDTTNSINPQFKVTNTGSSAIDLSKLTLRYYYTVDGQKDQTFWCDHAAIIGSNGSYNGITSNVKGTFVKMSSSTNNADTYLEISFTGGTLEPGAHVQIQGRFAKNDWSNYTQSNDYSFKSASQFVEWDQVTAYLNGVLVWGKEPGGSVVPSTQPVTTPPATTKPPATTKPPATTIPPSDDPNA
# Target: T1, α4β1 integrin expressed on Jurkat cells (human, UniProt P13612 34-1032; P05556 21-798)
# T1 construct: whole, on cells; Fluorescence-labeled Jurkat cells applied to the microarray; also called receptor recognizing the CS1 peptide
# Assay: cell adhesion of labeled Jurkat cells on microarray
# Experimental: Jurkat T-cells, a human leukemia line, were grown under the appropriate growing conditions. Shortly before the adherence assay, cells were washed with 5 mM EDTA in Tris-buffered saline (TBS, 10 mM Tris-HCl, pH 7.4, 150 mM NaCl) and then incubated with Cyto 82 (2 μM final concentration) for 30 min under continuous agitation. Labeled cells were washed twice with the same buffer and applied directly on the fabricated microarray slides.
# The model of interaction chosen for this purpose was α4β1-CS1-interaction model. α4β1 is an integrin expressed by several types of adherent cells and can mediate cell matrix contact trough the known ligand fibronectin. […] The slides were washed extensively and the interaction was scanned by the microarray scanner (FIG. 12).
# T1 sequence (P13612 34-1032, chain 1 of 2): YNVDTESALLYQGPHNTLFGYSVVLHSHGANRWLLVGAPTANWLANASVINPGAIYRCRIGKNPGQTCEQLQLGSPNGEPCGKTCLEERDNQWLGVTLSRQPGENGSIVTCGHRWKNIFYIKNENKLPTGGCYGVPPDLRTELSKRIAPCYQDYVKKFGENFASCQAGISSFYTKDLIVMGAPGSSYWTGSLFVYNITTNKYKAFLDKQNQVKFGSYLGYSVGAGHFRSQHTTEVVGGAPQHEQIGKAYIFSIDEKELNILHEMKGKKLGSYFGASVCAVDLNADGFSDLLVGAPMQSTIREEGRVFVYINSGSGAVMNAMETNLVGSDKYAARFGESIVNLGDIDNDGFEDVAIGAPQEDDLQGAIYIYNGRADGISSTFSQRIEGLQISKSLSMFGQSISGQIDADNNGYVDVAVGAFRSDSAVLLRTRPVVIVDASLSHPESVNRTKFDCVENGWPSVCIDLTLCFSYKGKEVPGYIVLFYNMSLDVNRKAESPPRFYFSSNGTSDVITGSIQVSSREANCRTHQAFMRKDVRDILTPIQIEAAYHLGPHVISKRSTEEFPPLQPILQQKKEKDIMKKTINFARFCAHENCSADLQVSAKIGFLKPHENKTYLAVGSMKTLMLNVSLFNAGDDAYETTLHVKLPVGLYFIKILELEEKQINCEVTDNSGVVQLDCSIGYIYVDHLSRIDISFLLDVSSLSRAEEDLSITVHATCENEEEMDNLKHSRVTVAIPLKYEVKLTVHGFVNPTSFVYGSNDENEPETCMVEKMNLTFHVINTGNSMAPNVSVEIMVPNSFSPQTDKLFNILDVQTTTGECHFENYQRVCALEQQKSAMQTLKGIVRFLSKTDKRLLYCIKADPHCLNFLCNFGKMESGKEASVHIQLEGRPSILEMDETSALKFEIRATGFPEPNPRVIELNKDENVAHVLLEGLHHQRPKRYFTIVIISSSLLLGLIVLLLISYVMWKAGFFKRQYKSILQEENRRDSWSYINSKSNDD
# T1 sequence (P05556 21-798, chain 2 of 2): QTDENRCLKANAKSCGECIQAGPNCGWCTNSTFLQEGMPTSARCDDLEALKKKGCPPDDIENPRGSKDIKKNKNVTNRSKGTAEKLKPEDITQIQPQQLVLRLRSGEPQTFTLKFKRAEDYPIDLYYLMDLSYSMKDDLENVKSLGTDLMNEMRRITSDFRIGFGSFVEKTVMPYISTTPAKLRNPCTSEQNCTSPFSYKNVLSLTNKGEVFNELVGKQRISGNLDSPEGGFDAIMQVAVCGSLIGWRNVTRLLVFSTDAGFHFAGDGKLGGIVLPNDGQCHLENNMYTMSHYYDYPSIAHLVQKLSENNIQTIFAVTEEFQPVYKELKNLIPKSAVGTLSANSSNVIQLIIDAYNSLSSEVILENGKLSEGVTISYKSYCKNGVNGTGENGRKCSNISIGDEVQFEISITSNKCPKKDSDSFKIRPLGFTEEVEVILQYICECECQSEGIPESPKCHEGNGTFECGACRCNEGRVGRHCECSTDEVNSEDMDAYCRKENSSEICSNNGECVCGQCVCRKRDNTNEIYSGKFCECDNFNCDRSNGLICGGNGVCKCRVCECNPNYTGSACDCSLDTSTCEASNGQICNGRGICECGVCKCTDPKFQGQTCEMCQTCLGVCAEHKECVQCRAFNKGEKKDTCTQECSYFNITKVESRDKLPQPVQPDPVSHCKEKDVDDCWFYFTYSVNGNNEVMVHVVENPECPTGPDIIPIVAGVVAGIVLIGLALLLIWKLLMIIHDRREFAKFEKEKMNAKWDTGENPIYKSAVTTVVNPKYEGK
binder,measurement,value
B1,binding result,no binding (tested: highest array concentration)
